The text below walks through data of publication PMC10684895, “The ELAVL3/MYCN positive feedback loop provides a therapeutic target for neuroendocrine prostate cancer”.

This series deals with GST-ELAVL3 (UniProt Q14576 1-367). Briefly: EMSA; 5 mM Mg2+; RNA-EMSA: 20 mM Tris-HCl (pH not stated), 100 mM NaCl, 5 mM MgCl2, 2 mM DTT, 37 C 1 h, 6% native gel at 4 C; pull-down: 50 pmol probe on beads, cell lysate, 4 C overnight. The conditions noted are these: protein: recombinant; tags: N-terminal GST (pGEX-4T-1); label: 3'-biotin. (In general: A gel shift assay detects complexes by their altered migration in electrophoresis.)
Sequence of GST-ELAVL3 (Q14576 whole entry): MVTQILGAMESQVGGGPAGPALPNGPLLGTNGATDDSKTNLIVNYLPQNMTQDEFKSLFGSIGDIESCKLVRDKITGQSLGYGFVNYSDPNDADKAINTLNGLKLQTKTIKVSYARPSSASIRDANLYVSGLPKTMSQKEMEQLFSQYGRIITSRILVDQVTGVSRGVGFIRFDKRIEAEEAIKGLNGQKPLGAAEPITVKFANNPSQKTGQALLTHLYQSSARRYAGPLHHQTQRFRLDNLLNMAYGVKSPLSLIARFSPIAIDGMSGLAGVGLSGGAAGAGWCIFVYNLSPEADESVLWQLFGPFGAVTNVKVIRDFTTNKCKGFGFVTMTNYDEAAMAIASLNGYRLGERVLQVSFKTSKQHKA

On to CACUCUGCACAUCCUGAUCUCUCUCUCAGA (ssRNA) [MYCN-3'UTR-F1-MUT], for which the binding result was “no binding”.
As to UCCAUCCUAGACACUACCUCAGUCGACGUA (ssRNA) [RICTOR-3'UTR-F3-MUT], the binding result is “no binding”.
